Entries after “also recorded” stand apart in the source; their conditions may differ. Bounds are passed on as bounds.

The subject of assay [1] is type VI collagen formation (PRO-C6) in fibrotic human PCLS. Nature of the assay: Fibrotic human precision-cut lung slice (PCLS) model, PRO-C6 biomarker of ECM remodeling. It counts as cell-based. To be noted: 48 hours; for effects on ECM remodeling: fibrotic human PCLS; for median levels of PRO-C6 compared to the no treatment (media) control: pooled data all donors and regions, nintedanib 1 μM, isotype control 30 μg/mL. The protocol: Studies were performed to evaluate the effect of the mAb5 antibody on biomarkers reflecting ECM remodeling in a fibrotic human precision-cut lung slice (PCLS) model. The anti-fibrotic effect was investigated at three different concentrations in human ex vivo lung tissue slices prepared from pulmonary fibrosis patients.
Tissue slices were prepared from the subpleural and central region of the fibrotic lung from two human end-stage donors with pulmonary fibrosis (IPF and secondary fibrosis) (see, for example, Hess et al., Toxicol In Vitro. 32:347-61, 2016). For both donors, lung tissue samples from two different regional areas (subpleural and central) were used to generate tissue cores used for PCLS. Adjacent cores were used to achieve serial PCLS for the analysis of one treatment as compared to medium treated PCLS from the same cores. This enables the comparison of densely packed fibrotic areas with fibrotic foci with less affected areas. To ensure the fibrotic status, clinical/demographic information for each patient is provided.
Each treatment was tested with three replicates for each lung region and for each donor.
Preparation and incubation of precision-cut lung slices. Lung lobes were canuled and filled with 37° C. warm 2% low-melting agarose/medium solution. Filled lobes were cooled on ice to polymerise agarose. Tissue cores with a diameter of 8 mm were prepared and cut into approximately 300 μm thick slices using a microtome (Krumdieck tissue slicer, Alabama Research and Development, Muniford, AL, USA or Vibratome OTS-5000, Science Services GmbH, Munich) in Earle's Balanced Salts Solution (EBSS). Tissue slices were incubated in Dulbecco's modified Eagle's medium/nutrient mixture F-12 Ham (DMEM) with L-glutamine and 15 mM HEPES without phenol red. Tissue slices were transferred into petri dishes and washed with DMEM for 2 hours. Medium was changed four times every 30 minutes in order to remove cell debris.
Two PCLS per well were left over night in 500 μL DMEM in 24-well plates for a final washing step. Next day, PCLS were treated with experimental treatments or controls (see Table E5) in 250 μl DMEM/F-12 culture medium for 48 hours under normal cell culture conditions (37° C., 5% CO2). Medium contained 100 units/mL penicillin and 100 μg/mL streptomycin and was not supplemented with fetal calf serum.
After incubation for 48 hours, supernatants were collected, proteinase inhibitor cocktail (0.2%) was added and samples were frozen to −80° C. Additionally, the two PCLS from each well were transferred to a 2 mL safe-lock tube, snap-frozen in liquid nitrogen immediately, and stored at −80° C. Samples from the three replicates for each condition were not pooled.
Extracellular matrix remodeling evaluation. Biomarkers that reflect ECM remodeling were assessed in supernatant by Nordic Bioscience using the following competitive ELISA: PRO-C6 (C-terminal of type VI collagen C5 domain released as type VI collagen is incorporated into the matrix; measured on mesoscale platform [hsPRO-C6]): Reflects type VI collagen formation. Type VI collagen is a beaded filament collagen mainly found in the interface between the interstitial matrix and the basement membrane.
Statistics. […] Pooled data are presented as percentage of the “no treatment” control, calculated for individual regions and donors. Statistical significant differences were evaluated on pooled data by Kruskal-Wallis with Dunn's multiple comparisons test, comparing to the “no treatment” control. […]

In assay [2] the target is T1, hIL-11Rα (Homo sapiens, UniProt Q14626).
T1 sequence (Q14626 23-422): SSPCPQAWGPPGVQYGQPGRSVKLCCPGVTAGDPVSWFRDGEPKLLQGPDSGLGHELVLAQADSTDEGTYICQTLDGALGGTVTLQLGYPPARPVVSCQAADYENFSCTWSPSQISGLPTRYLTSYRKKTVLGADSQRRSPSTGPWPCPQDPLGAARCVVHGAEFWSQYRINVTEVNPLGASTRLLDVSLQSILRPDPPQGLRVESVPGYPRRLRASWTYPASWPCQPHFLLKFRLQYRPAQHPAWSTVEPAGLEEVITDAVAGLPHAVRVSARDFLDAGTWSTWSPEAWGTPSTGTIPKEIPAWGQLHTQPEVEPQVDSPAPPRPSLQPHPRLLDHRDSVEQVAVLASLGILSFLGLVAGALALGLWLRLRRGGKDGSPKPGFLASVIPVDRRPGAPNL
Nature of the assay: Kinetic binding analysis by biolayer interferometry (protein G biosensors, Octet RED96e). The protocol:
Association was carried out in the presence of a 2-fold dilution series of hIL-11Rα and was allowed to proceed for 120 seconds; dissociation was measured for 300 to 1200 seconds.

The test system of assay [3] is IL-11 signaling in STAT3 Reporter (Luciferase)—HEK293 cell line. Nature of the assay: Cell-based STAT3 reporter (luciferase) assay for inhibiting IL-11 signaling. Further details: species or system human. Conditions: compared with TS7 and 8E2. The protocol:
Further testing of the lead mAbs was carried out using a cell-based reporter assay. IL-11 is reported to signal through the STAT3 and ERK pathways. Therefore, a STAT3 reporter cell line in which firefly luciferase gene expression is driven by STAT3 response elements located upstream of a minimal TATA promoter was selected to analyze mAb functional activity. In these cells, IL-11 can activate the endogenous STAT3 allowing it to bind to the STAT3 response elements, inducing transcription of the luciferase reporter gene and resulting in readily detectable luciferase expression. Antibodies to IL-11R which block IL-11 signaling should inhibit expression of IL-11 driven luciferase in these cells.
The STAT3 Reporter (Luciferase)—HEK293 cell line (BPS Bioscience, catalog #79800-P) was grown, passaged, and assayed as per manufacturer's protocols. Cells were added at 25,000 cells per well in a 96-well microtiter dish and incubated at 37° C. for 30-45 min. in 5% CO2 humidified air. Anti-IL-11R mAbs were added as a 3-fold dilution series in duplicate columns or rows, and plates were returned to the incubator for an additional 1 h at 37° C. after which 40 ng/mL IL-11 was added to each well to initiate the signal transduction cascade and luciferase production. Plates were incubated for 18-24 hours at 37° C. and luciferase was detected using a One-Step Luciferase Assay System (BPS Bioscience, cat. no. 60690-1) as per manufacturer's instructions.

Assay [4] concerns the target T2, hIL-1 IR (Homo sapiens, UniProt Q14626).
T2 sequence (Q14626 23-422): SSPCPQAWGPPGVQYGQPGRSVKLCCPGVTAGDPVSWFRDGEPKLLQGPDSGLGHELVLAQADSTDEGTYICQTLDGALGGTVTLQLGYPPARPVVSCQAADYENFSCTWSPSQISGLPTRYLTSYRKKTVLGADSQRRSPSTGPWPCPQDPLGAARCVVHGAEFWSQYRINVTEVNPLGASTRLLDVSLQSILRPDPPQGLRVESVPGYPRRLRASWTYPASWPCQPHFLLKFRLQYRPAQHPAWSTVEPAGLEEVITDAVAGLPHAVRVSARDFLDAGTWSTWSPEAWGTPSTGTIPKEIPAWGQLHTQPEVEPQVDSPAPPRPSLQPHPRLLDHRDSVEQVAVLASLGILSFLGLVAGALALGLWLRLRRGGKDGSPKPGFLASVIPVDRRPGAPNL
Nature of the assay: Alternate biolayer interferometry assay (AHC biosensors) ranking mAbs 16-32 against mAb5. It counts as binding. To be noted: for ka: association 120 s; for kd: dissociation 1200 s; for qualitative assessment: compared to mAb5. The text has this:
A further series of antibodies were designed in which the residue at Kabat position 31 of the heavy chain was varied (mAbs 16-32). In this case an alternate biolayer interferometry assay was used to initially rank the antibodies compared to mAb5, the closest relative in sequence to mAbs 16-32. MAbs were loaded onto anti-human constant domain (AHC) biosensors (FortdBio) in 10× kinetics buffer consisting of PBS, 0.1% BSA, 0.02% Tween 20 for 120 s to achieve a spectral shift value of 0.8 to 1.2 nm. Association was carried out in the presence of 2-fold dilution series of hIL-1 IR and was allowed to proceed for 120 s. Dilution series started 10 nM. The dissociation in 10× kinetics buffer for 1200 s. Binding kinetic measurements were taken on an Octet RED96e instrument.
On the technique in general: In BLI a coated tip is dipped into the sample, and binding shifts an interference pattern.

Assay [5] concerns the target T2, hIL-1 IR. Described as above. It counts as binding. To be noted: compared to mAb5.

Regarding `COC(=O)c1ccc2c(c1)NC(=O)/C2=C(\Nc1ccc(N(C)C(=O)CN2CCN(C)CC2)cc1)c1ccccc1` [nintedanib, Nintedanib, reference compound], the “effects on ECM remodeling” value in assay [1] was “ECM remodeling could be reduced”. In addition, the “median levels of PRO-C6 compared to the no treatment (media) control” value in assay [1] (mAb5 0.3, 3.0, 30 μg/mL) is reported as “decreased”.

B1: mAb5: anti-IL-11Rα antibody; VH SEQ ID NO: 201, VL SEQ ID NO: 202; human IgG4 (S228P), kappa light chain (antibody, V domains shown)
VH: EVQLLESGGGLVQPGGSLRLSCAASGFTFSWYSMTWVRQAPGKGLEWVSSIVPYGDLTQYADSVKGRFTISRDNSKNTLYLQMNSLRAEDTAVYYCAKGPGWGSFDLWGRGTLVTVSS
VL: DIQMTQSPSSLSASVGDRVTITCQASQDINNYLNWYQQKPGKAPKLLIYDASNLQTGVPSRFSGSGSGTDFTFTISSLQPEDIATYYCQQHESQSPTFGPGTKVDIK
modifications: human IgG4 S228P and kappa constant regions; mAb5 VH Chain; mAb5 VL Chain
notes: anti-IL-11Rα antibody; human IgG4 (S228P), kappa light chain
Regarding B1, in assay [2] (beyond the ability of the instrument to determine an accurate off-rate (kd)), the “binding affinity (in words)” value is reported as “very high binding affinity”. The ka in assay [2] (protein G biosensors, association 120 seconds) worked out at 63700 M⁻¹ s⁻¹; in assay [4], 490000 M⁻¹ s⁻¹. Moreover, the kd is less than 1e-07 s⁻¹ in assay [2] (protein G biosensors, dissociation 300 to 1200 seconds) and 2.5e-05 s⁻¹ in assay [4]. In addition, the “relative potency at inhibiting IL-11 signaling (in words)” value in assay [3] is listed as “more potent at inhibiting IL-11 signaling than either of TS7 or 8E2”. Besides, the “effects on ECM remodeling” value in assay [1] was “better effects on ECM remodeling relative to the approved therapy nintedanib”. Also, the “dose dependence of PRO-C6 reduction” value in assay [1] (mAb5 0.3, 3.0, 30 μg/mL) is “dose-dependent manner; also recorded: dose-related reductions”. Further, in assay [1] (mAb5 0.3, 3.0, 30 μg/mL), the “median levels of PRO-C6 compared to the no treatment (media) control” value was “decreased”.

B2: mAb31: anti-IL-11Rα antibody; VH SEQ ID NO: 253, VL SEQ ID NO: 254; heavy chain Kabat position 31 variant of mAb5 (antibody, V domains shown)
VH: EVQLLESGGGLVQPGGSLRLSCAASGFTFSVYSMTWVRQAPGKGLEWVSSIVPYGDLTQYADSVKGRFTISRDNSKNTLYLQMNSLRAEDTAVYYCAKGPGWGSFDLWGRGTLVTVSS
VL: DIQMTQSPSSLSASVGDRVTITCQASQDINNYLNWYQQKPGKAPKLLIYDASNLQTGVPSRFSGSGSGTDFTFTISSLQPEDIATYYCQQHESQSPTFGPGTKVDIK
modifications: mAb31 VH Chain; mAb31 VL Chain
notes: anti-IL-11Rα antibody; heavy chain Kabat position 31 variant of mAb5
B2: in assay [4], the ka was 690000 M⁻¹ s⁻¹, the qualitative assessment entry is given as “improved/” and the kd result was “off-scale”. Besides, the “potency by more detailed kinetic measurements (in words)” value in assay [5] is recorded as “further improved potency”.

B3: mAb29: anti-IL-11Rα antibody; VH SEQ ID NO: 249, VL SEQ ID NO: 250; heavy chain Kabat position 31 variant of mAb5 (antibody, V domains shown)
VH: EVQLLESGGGLVQPGGSLRLSCAASGFTFSSYSMTWVRQAPGKGLEWVSSIVPYGDLTQYADSVKGRFTISRDNSKNTLYLQMNSLRAEDTAVYYCAKGPGWGSFDLWGRGTLVTVSS
VL: DIQMTQSPSSLSASVGDRVTITCQASQDINNYLNWYQQKPGKAPKLLIYDASNLQTGVPSRFSGSGSGTDFTFTISSLQPEDIATYYCQQHESQSPTFGPGTKVDIK
modifications: mAb29 VH Chain; mAb29 VL Chain
notes: as for B2
Turning to B3, in assay [4], the ka was found to be 610000 M⁻¹ s⁻¹, the qualitative assessment entry is “improved/” and the kd came to 1.8e-05 s⁻¹. Also, in assay [5], the “potency by more detailed kinetic measurements (in words)” value was “further improved potency”.

B4: mAb23: anti-IL-11Rα antibody; VH SEQ ID NO: 237, VL SEQ ID NO: 238; heavy chain Kabat position 31 variant of mAb5 (antibody, V domains shown)
VH: EVQLLESGGGLVQPGGSLRLSCAASGFTFSKYSMTWVRQAPGKGLEWVSSIVPYGDLTQYADSVKGRFTISRDNSKNTLYLQMNSLRAEDTAVYYCAKGPGWGSFDLWGRGTLVTVSS
VL: DIQMTQSPSSLSASVGDRVTITCQASQDINNYLNWYQQKPGKAPKLLIYDASNLQTGVPSRFSGSGSGTDFTFTISSLQPEDIATYYCQQHESQSPTFGPGTKVDIK
modifications: mAb23 VH Chain; mAb23 VL Chain
notes: as for B2
For B4, in assay [4], the ka was 720000 M⁻¹ s⁻¹, the qualitative assessment entry was “improved/” and the kd entry is listed as “off-scale”. The “potency by more detailed kinetic measurements (in words)” value in assay [5] is “further improved potency”.

B5: mAb21: anti-IL-11Rα antibody; VH SEQ ID NO: 233, VL SEQ ID NO: 234; heavy chain Kabat position 31 variant of mAb5 (antibody, V domains shown)
VH: EVQLLESGGGLVQPGGSLRLSCAASGFTFSHYSMTWVRQAPGKGLEWVSSIVPYGDLTQYADSVKGRFTISRDNSKNTLYLQMNSLRAEDTAVYYCAKGPGWGSFDLWGRGTLVTVSS
VL: DIQMTQSPSSLSASVGDRVTITCQASQDINNYLNWYQQKPGKAPKLLIYDASNLQTGVPSRFSGSGSGTDFTFTISSLQPEDIATYYCQQHESQSPTFGPGTKVDIK
modifications: mAb21 VH Chain; mAb21 VL Chain
notes: as for B2
For B5, in assay [4], the ka is 750000 M⁻¹ s⁻¹, the qualitative assessment entry is “improved/” and the kd result is reported as “off-scale”. Also, in assay [5], the “potency by more detailed kinetic measurements (in words)” value was “further improved potency”.
